Measured values published in patent publication US20040073001A1 (Kyowa Kirin, published 2004).

Assays:
[1] = biological target: T1, GAL4-β-catenin fusion protein (GAL4 BD fused with mouse β-catenin armadillo domain, residues 128 to 683) (yeast; mouse, UniProt P04386 1-147; Q02248 128-683); experiment: yeast two-hybrid screening, HIS3 and β-galactosidase reporters
T1 construct: Bait of the yeast two-hybrid system; also called mβ-catenin arm; β-catenin arm bait plasmid
Protocol: Screening was carried out with […] mouse fetal (Swiss Webster/NIH mouse; 17-day embryo) cDNA library, which is a library to be used for the two-hybrid system and provided by Clontech. This cDNA library contains vector pGAD10 (Clontech) with cDNA insert and, as a selection marker, LEU2 gene involved in leucine biosynthesis in yeast, and can express fusion proteins of GAL4 AD and cDNA-encoding proteins through ADH1 promoter. Specific method for the screening was conducted according to the manual attached to the library from Clontech as follows.
Specifically, both mouse fetal cDNA library for the two-hybrid system and plasmid GAL4-β-catenin prepared in (1) were introduced in yeast Saccharomyces cerevisiae HF7C strain (Clontech). HF7C strain is a yeast strain that is tryptophan-, leucine-, and histidine-auxotrophic. The strain has HIS3 gene on the chromosome wherein the gene is involved in histidine biosynthesis and has been ligated downstream of GAL1 promoter to which GAL4 BD can bind, as well as E. coli-derived β-galactosidase gene lacZ ligated downstream of a nucleotide sequence to which GAL4 BD can bind as reporter genes (Gene 212: 197 (1998)). A transformant containing both plasmid GAL4-β-catenin and cDNA clone of a protein that binds to mβ-catenin arm and expresses the respective fusion proteins, is non-auxotrophic for histidine and is positive in β-galactosidase activity. […]

[2] = biological target: T2, GAL4 BD fusion of the N-terminal half of the β-catenin arm (residues 141 to 390 of mouse β-catenin, armadillo … (yeast; mouse, UniProt P04386 1-147; Q02248 141-390); experiment: yeast two-hybrid, β-galactosidase activity
T2 construct: Two-hybrid bait; also called N-terminal half (armadillo repeats 1-6) of the β-catenin arm
Excerpt: (§1) The respective bait plasmids were cotransfected with the B9L cDNA fragment-expressing clone obtained by the two-hybrid system in Example 1 into yeast HF7C strain, and the binding between the B9L protein and the respective β-catenin partial fragments were examined by the existence of β-galactosidase activity in the transformants. […] Thus, it was considered that the B9L protein binds to the N-terminal region of β-catenin arm (armadillo repeats 1-6).
(§2) In order to further examine which region of the B9L protein binds to the β-catenin arm, two-hybrid system was performed as follows. […] Each plasmid was cotransfected with the β-catenin arm bait plasmid prepared in Example 1 into yeast HF7C strain, and the binding of each B9L protein partial fragment and β-catenin arm was examined based on the presence or absence of β-galactosidase activity in the transformants. […] Thus, the B9L protein was indicated to bind to the β-catenin arm at the region of residues 292-439 in the amino acid sequence represented by SEQ ID NO: 2.

[3] = biological target: T3, GAL4 BD fusion of almost the entire β-catenin arm (residues 141 to 664 of mouse β-catenin) (yeast; mouse, UniProt P04386 1-147; Q02248 141-664); experiment: yeast two-hybrid, β-galactosidase activity
T3 construct: Two-hybrid bait; also called almost entire region
Excerpt: as §1, §2

[4] = biological target: T4, GAL4 BD fusion of the C-terminal half of the β-catenin arm (residues 391 to 664 of mouse β-catenin, armadillo … (yeast; mouse, UniProt P04386 1-147; Q02248 391-664); experiment: yeast two-hybrid, β-galactosidase activity
T4 construct: Two-hybrid bait; also called C-terminal half of the β-catenin arm (armadillo repeats 7-12)
Excerpt: as §1, §2

- binding result [1]: binds
- binding result [2]: binds
- binding result [3]: binds
- binding result [4]: no binding
B1: GAL4 AD fusion of the B9L cDNA fragment clone obtained by the two-hybrid system (B9L protein residues 245 to 564, SEQ ID NO: 4) (other, not shown: large carriers)
chain: LANTAAEAVLQGRAESILAYHQQNVPRAKLDQAPKVPPTPEPLPLNTPSAGTPQSQPPPLPPPPPAPGSAPPALPPEGPPEDTSQDLAPNSVGAASTGGGTGGTHPNTPTAATANNPLPPGGDPGSAPGSALLGEATPTGNGQRNLVGSEGLSKEQLEHRERSLQTLRDIERLLLRSGETEPFLKGPPGGAGEGGPPAQAPSAAQPPPSAPPGGLKKYEEPLQSMISQTQSLGGPPLEHEVPGHPQGGDMGQQMNMMMQRLGQDSLTPEQVAWRKLQEEYYEEKRRKEEQIGLHGGRPLQDMVGMGGMMGRGPPPPYHSK
notes: Expressed in yeast HF7C as prey of the two-hybrid system; also called B9L cDNA fragment-expressing clone; bc19 like protein fragment
